Assays:
ELK-1(K35R);coreSRF = test: EMSA; settings: not given in material (EMSA as in ref 29; southwestern as in ref 34, modified)
ELK-1(K70R);coreSRF = test: EMSA; settings: not given in material (EMSA as in ref 29; southwestern as in ref 34, modified)
HA.ELK-1;coreSRF = test: EMSA; settings: not given in material (EMSA as in ref 29; southwestern as in ref 34, modified)
HA.ELK-1 = test: EMSA; settings: not given in material (EMSA as in ref 29; southwestern as in ref 34, modified)
ELK-mUBQ = test: southwestern; settings: renatured on nitrocellulose; not given in material (EMSA as in ref 29; southwestern as in ref 34, modified)

CFOS SRE
binding signal (% of WT ELK-1) (ELK-1(K35R);coreSRF): 80
binding signal (% of WT ELK-1) (ELK-1(K70R);coreSRF): 80
binding signal (% (reference)) (HA.ELK-1;coreSRF): 100

E74 site
binding signal (% (reference)) (HA.ELK-1): 100
binding signal (fold less than unmodified ELK-1) (ELK-mUBQ): 4
